Data on three molecules can be found in article PMC8998196, “A Second Gamma-Glutamylpolyamine Synthetase, GlnA2, Is Involved in Polyamine Catabolism in Streptomyces coelicolor” (International Journal of Molecular Sciences, 2022).

Series [1] deals with T1, GlnA3 (His-GlnA3) (Streptomyces coelicolor, UniProt Q9KZC7).
T1 construct: His-tagged GlnA3
T1 sequence (Q9KZC7 1-466): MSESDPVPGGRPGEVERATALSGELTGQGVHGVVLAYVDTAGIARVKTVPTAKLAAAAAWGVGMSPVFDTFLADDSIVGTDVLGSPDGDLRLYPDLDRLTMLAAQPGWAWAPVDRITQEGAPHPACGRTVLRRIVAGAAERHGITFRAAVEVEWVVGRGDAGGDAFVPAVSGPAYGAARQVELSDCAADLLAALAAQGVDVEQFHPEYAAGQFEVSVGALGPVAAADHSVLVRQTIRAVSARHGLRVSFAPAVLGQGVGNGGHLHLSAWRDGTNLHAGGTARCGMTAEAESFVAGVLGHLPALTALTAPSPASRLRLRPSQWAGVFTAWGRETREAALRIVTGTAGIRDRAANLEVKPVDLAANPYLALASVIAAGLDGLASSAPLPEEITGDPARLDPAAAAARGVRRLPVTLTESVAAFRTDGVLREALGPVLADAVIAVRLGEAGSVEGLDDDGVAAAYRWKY
The series is described as follows: phosphate release (molybdate) modified GS assay. The class given is biochemical. Particulars: 50 mM substrate, 10 µg enzyme, co-substrates glutamate and ATP, 30 °C, 5 min.

Substrate in series [2]: NCCCCN
As to the kind of experiment: phosphate release (molybdate) modified GS assay, Michaelis-Menten fit. It is filed as biochemical, Streptomyces coelicolor. The settings on record: co-substrates glutamate and ATP, Mg2+, 30 °C, 5 min.

Substrate in series [3]: N[C@@H](CCC(=O)O)C(=O)O
The description is as above. The settings on record: polyamine and ATP as co-substrates, Mg2+, 30 °C, 5 min, L form not given. The class given is biochemical, Streptomyces coelicolor.

Substrate in series [4]: Nc1ncnc2c1ncn2[C@@H]1O[C@H](COP(=O)(O)OP(=O)(O)OP(=O)(O)O)[C@@H](O)[C@H]1O
Described as above. It is filed as biochemical, Streptomyces coelicolor. Particulars: polyamine and glutamate as co-substrates, Mg2+, 30 °C, 5 min.

In the case of `NCCCCNCCCN` [spermidine], the “phosphate release (molybdate) modified GS assay” value in series [1] is “GlnA3 demonstrated a significant specificity towards spermidine and spermine, compared with GlnA2”. Consider `NCCCNCCCCNCCCN` [spermine], for which the “phosphate release (molybdate) modified GS assay” value in series [1] is “GlnA3 demonstrated a significant specificity towards spermidine and spermine, compared with GlnA2”.

B1: GlnA2 (His-GlnA2) (Streptomyces coelicolor A3(2)) (protein)
chain: MDKQQEFVIRTLEERDIRFVRLWFTDVLGFLKSVAVAPAELEQAFDEGIGFDGSAIEGFARVYESDMIAKPDPSTFQVLPWRAEAPGTARMFCDILMPDGSPSFADPRYVLKRALARTSDLGFTFYTHPEIEFFLLKDKPVDGSVPTPADNSGYFDHTPQNIGMDFRRQAITMLESMGISVEFSHHEGAPGQQEIDLRYADALSTADNVMTFRLVMKQVALEQGLQATFMPKPFSEYPGSGMHTHLSLFEGDRNAFYESGAEYQLSKVGRSFIAGLLRHAAEISAVTNQWVNSYKRIWGGTERTAGAGGEAPSYICWGHNNRSALVRVPMYKPGKTGSARVEVRSIDSGANPYLTYAVLLAAGLKGIEEGYELPPGAEDDVWALSDAERRALGIEPLPQNLGEALALMERSDLVAETLGEHVFDFFLRNKRQEWEEYRSQVTAFELRKSLPVL
notes: dodecamer only modelled
Turning to B1, the Km (in general, the substrate concentration at which the rate is half of its maximum) in series [2] was determined as 550 ± 100 µM; in series [3] it was 1060 ± 200 µM; in series [4] it was 130 ± 100 µM.
